Experiments:
[1] = biological target: T1, ATF domain of uPA (Homo sapiens, UniProt P00749); test: Yeast two hybrid with ATF domain of uPA; format: binding
T1 construct: expressed in transfected cells
Text: […]
In order to explore how GhJAZ1 enters cancer cells, we cloned the genes of most tumor surface receptors, including uPAR (NCBI database accession number of NM_002659.4), CCK1R (NP_000721.1), CCK2R (NP_001350481.1), HER2 (NP_004439.2), GRPR (NP_005305.1), MUC1 (NP_001358649.1), VEGFR1 (NP_002010.2), Insulin receptor (NM_000208.4), NTR (XM_011528827.2), PSMA (XM_017017432.1), TFR1 (NM_001128148.3), TFR2 (NM_003227.4), PEPT1 (NM_005073.4), APN (NM_001150.3). […] We detected the interaction of GhJAZ1 with uPA (as the ligand of uPAR, NCBI database accession number of NP_002649.2) and uPAR by yeast two hybrid (the steps of the experiment as Example 3). […]

[2] = test system: Human ovarian cancer cells SKOV3 tumor; test: Ovarian cancer mouse model in vivo, intratumoral injection; design: species or system nude mice; settings: 5 mg/kg intratumoral injection every 2 days, 7 times
Description: Human ovarian cancer cells SKOV3 were cultured. Cells were digested by the trypsin before being used for tumor bearing. Cells were washed twice with PBS, followed by resuspending with PBS to a concentration of 1×10^8/mL. The cell suspension was subcutaneously injected into the axilla of nude mice, with an inoculation dose of 0.2 mL per nude mouse. After inoculation, nude mice were randomly assigned into two groups, which were PBS group and GhJAZ1 protein (5 mg/kg) treated group, respectively, with 8 mice in each group. After tumor inoculation, administration began when the tumor volume reached to about 50-100 mm^3. Administration by intratumoral injection was conducted every 2 days for a cycle of 14 days, in total of 7 times. Throughout the entire experiment, the body weight of nude mice was monitored while administration, and tumor size was measured using a vernier caliper according on the formula V=½×length×width×width, to calculate the tumor volume, and plot tumor growth curve. 14 days later, the tumor was removed, took images and weighted.

B1: GhJAZ1: cotton JAZ1 protein, gene number Gh_A05G0260, sequence SEQ ID No. 4; prokaryotically expressed with His tag, about 30 KD (protein)
chain: MSSCSESTAMKPARSPEKPSFAQTCNLLSQYLKEKGSFGDLSLGMTCNVEANGTPVVPPPTMNLFPLNDKSDDVCGRNGGNPKNLTSMDLFPQQAGLASKDDSPNKLEPQTAPMTIFYGGQVIVFNDFPANKAKEIMLLASNSSSQSNNSFNPIPFTSSIARSPIESSIGVPPTSKPVHPAQRAVPGDLPIARRASLHRFLEKRKDRITAKAPYQINNSAAAPSLSGDNKSWLGLAAQSP
modifications: His tag
notes: prokaryotically expressed with His tag, about 30 KD
For B1, the “interaction with the ATF domain of uPA” value [1] was “interacts”, the “volume of tumors vs control group” value ([2]; SKOV3 in nude mice) was “highly significantly lower” and the “weight of tumors vs control group” value ([2]; tumors removed after 14 days) was “highly significantly lower”.

Source: patent publication US20240279288A1, “APPLICATION OF PLANT JAZ PROTEINS AND DERIVED POLYPEPTIDES IN PREVENTION AND TREATMENT OF HUMAN AND ANIMAL TUMORS” (ANYANG INSTITUTE OF SINO-COTTON INDUSTRY INNOVATION, priority 2021, published 2024)
